# From the supplement of paper PMC9170038
# System: K4 kissing-loop RNA reporter
# Assay: apparent KD of K4 kissing-loop reporter; higher = weaker reporter binding
# Conditions: Eterna round: R107; input ligand: none
# Protocol: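 RNA-MaP round R107: designed RNA switches with theophylline, tryptophan, arginine or FMN aptamers are transcribed on-chip within common flanks. They are titrated with a labelled K4 kissing-loop RNA reporter in RNA-MaP buffer (100 mM Tris pH 7.5, 80 mM KCl, 4 mM MgCl2), without ligand or with the indicated ligand. Median apparent KD per design.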
# 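Also: bound reporter read as fluorescence of individual clusters on recovered sequencing chips by microscopy, with normalized cluster intensities fitted with a binding model.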
row,Sequence,apparent KD of K4 kissing-loop reporter [nM]
1,UGUCAUUGGUCGGCCGCCACUAGGACCGGGAGUAACCUAGUGAUGUUAGUGUGCUCGGCCGCCACUAGGACCGGGACCGAUGACU [KL-SSTryp-B22 #DoubleAptamer],157
2,AGAACUGUCUUGGAUACCAGUGAUGUUGGUAUCUAUGUGUGAGUGCAAAGCGUCCCACAUUGCCCUUGGCAGCUAAGACUGUUCA [Omei KL Theo B Exc A v2],146
3,GGAUAGGAUAGAGGAUAUGGUUUAUGCAGGAAUAACUUAUCGUGUAAAUCCAUAGGGAGUGAUGUUCCAGAAGGCUGUCCUAUCG [MatMod 13 - Jieux - Exclusion - FMN B],228
4,UGACUGGAUGGAAGGAGCGCUAAACUCCUAGUGAUGUUAGGGAAACGAGACAAAGUCUCGAGGCAGGUAGGUCGCCAUCUAGUCU [FiskerMod 15 - Jieux - Same State - Arginine B],168
5,UGUCAUUGGUCGGCCGCCACUCCAUAAAGAGUGAUGUUCUAAAAGACGGAUCGAAAGAUCUGUCGGAGGACCGGGACCGAUGACU [FiskerMod 4 - Jieux - Same State - Tryptophan B],1090
6,UGAUAGGACAGAAGGAGCGGAAGUGAUGUUUCCAAAAGGAAAGGUCGACAAAGUCGACCCUUCCAGGUAGGUCGCUGUCCUAUCU [ArgBX 8 #Palindromic #SwitchBubble #StaticStem],82.9
7,AAGUGUGUGGCGGCCGCCACUAGGAUCCAGUGAUGUUGGAGAUAUCUCGUAAGAGAUAUCCGCCAUAGGACCGGGCCAUAUAGAA [Same State - Tryptophan B (Freestyle 16)],388
8,GGGAUAGGAUCAGUGAUGUUGGUCCCAGAUACCAGACAAAGUCACGUCCCUUGGCAGCUGAUGAUCGCUGACGACCGGCCUCCAA [theeternabot_sameState_KL_Theo_A_7],262
9,UGACUGGACUGAAGGAGCGCGCGAGACAAAGUCUCGAACUGGUAGUGAUGUUAUCAAAUAACGCAGGUAGGUCGCAGUCUAGUCU [ArgBS 12 #SwitchBubble #StaticStem],255
10,UGACUACAAAAGGAAUAAUCCUAGUGAUGUUAGGAUAUGCUGAUAAGCAGAAGGAACUGAGAUCGAAAGAUCUCAAAUGUAGUCU [FmnAX 25 Mat Inspired #SwitchBubble #StaticStem #K4Early],92.3
11,AAACAUUGGUCGGAUACCAGUUAGACCGAUAGGUCAAAACUGGAGUGAUGUUCCUAAAAUAACCCUUGGCAGCCGACCGAUGAAA [MAT - Same State Theophlline B - Mod of Eli - D5],787
12,CCAUUCAUUUACGAUACCAGUCUAAUAUAUUGAAUCAAAACCCUCGCCGAGUGAUGUUCGGACCCUUGGCAGCGUCUGCGAGAGG [ddrdkmullin],677
13,GGAUAGGACGGAGGAUAUGGUAGUGAUGUUACCAAACUGGUUAAACAUGUCAGAAAACUGGCAUGACCAGAAGGCCGUCCUAUCG [FmnBX 27 G10+C76],69.6
14,CAUACGCAUGGAGGAUAUGAGAUUUCUCAUAUUAUUUAAUAUUCUCAGUGAUGUUGGGAUUUAAACUCAGAAGGCCAUGUGUAUG [Ex FMN B 7],159
15,AAGGUCACCACUACAGUGAUGUUGUAGGAGCAGGAUAUGCAGAAAUGCAGAAGGGCUCGCUCCAGGUGACCGAAUGAAACAUUCA [Omei KL FMN A SS A v4],382

# Same assay, conditions: Eterna round: R107; input ligand: theophylline 20 uM
row,Sequence,apparent KD of K4 kissing-loop reporter [nM]
1,CAGCCUGGUCAGUGAUGUUGGCCGCAGGGAAAGGAUAUUGUGUUGGCAAGAAGGUUCGCUUGAUCGUUGGCCCAUGCAUGGGCCU [theeternabot_sameState_KL_FMN_A_44],280
2,CUUAUGGACUAAGGAUAUGGGUAUACCGGAAGCGCCGUCACGGUAGUGAUGUUACACGCGACGGGACCAGAAGGUAGAUCGCUCC [theeternabot_exclusion_KL_FMN_B_33],71.3
3,UUGUUUGGUUGAGAGGUUGGGCGAGAUGAUACCAGUAGAGAAGAGUACCCUUGGCAGCAUAGGAGAGAUAUAGUGAUGUUGUAUA [SSTheophA.R],525
4,GCGCGUCAUGUCAGCGGUGACACUGUCGAUACCAGUGCCGCAAGGCGCCCUUGGCAGCGACGUGCUGGAGUGAUGUUCCAGCGUU [#2 Exclusion - Theophylline A Attempt #29 (HarryS)],152
5,UCACAGUCCAAAGGAUAUUGAGUGCGCGUGCGAUUUAAGCUGAAGCCGUAGCUAGUGAUGUUAGCCCAAGAAGGUUGGUAGCCAG [theeternabot_exclusion_KL_FMN_B_16],193
6,UCGAAGGAUGGAAGGAGCGCUCGUCAGUCCUGCGAGUGAUGUUCGUGGGUAAAUAUUCGCGAGCAGGUAGGUCGCCAUCUUGAGA [Laatla],108
7,GGUAGCAUGGCGGCCGCCACUCAUGUAGAUACCUACAUAGUAAGCAGUGAUGUUGCUUUGUGGUUGAGGACCGGGCCAUGCUACC,161
8,AAUCAAUACAGAAGGAGCGUGACAGUUGCGAGUGUAAUUUUAGCUAGUGAUGUUAGCAUUUCACAGGUAGGUCGCUGUACAUUUA [#05 K4 Arginine B Same State],140
9,GGAUAGGAUAGAGGAUAUGGUUUAGGCAAGAAUAACUUGUCAUGUAAAUCCAUGAGGAGUGAUGUUCCAGAAGGCUGUCCUAUCG [MatMod 8 - Jieux - Exclusion - FMN B],142
10,AGCUGCCGAAUAGAUACCAGUGUCUUUAGUGAUGUUUCAGAGCUGGCACGAUCAGAAGGUCACCCUUGGCAGCUAGUGCCAGCGU [theeternabot_exclusion_KL_Theo_B_39],344
11,UGAUACCAGACGGCCGCCACUAGACCAGUCAAAGACUGGAUGUGAUGUUUGAGGAGUGAUGUUCCUAGGACCGGGUCUGGUAUCU [TrypBX 4 #Palindromic #SwitchBubble #StaticStem],87.6
12,AAGGCGUCGAGUUUGGUGGCGCCAACAGAUACCAGAUUACCUCCAAUCCCUUGGCAGCUGGCUUGAGAGUGAUGUUUUCAAAAGU [theeternabot_sameState_KL_Theo_A_33],528
13,GGCAUCCAUGGACAUAGUGAUGUUAUGUACCGAGGACCGGUACGGCCGCCACUCGGCCAUGGAUGCCGCAAUCGGAAACGAUUGC,667
14,CCAUCGCUAUUCGAUACCAGCUACUUAGUGAUGUUAAGUUUUUACCCACUGUAGGUGGGAAGCCCUUGGCAGCGAAUAGUGAUGG [Theophylline B K4 27],151
15,UGAACCGCCCAGUGAUGUUGGGCCAUAGAUACCAGCCUCUCCGACGGCCCUUGGCAGCUAGGGCCCGGCAGGUAGGAGACUCUGC [Orarzasove],239
16,UGUCAUUGGUCGGCCGCCACUAGGACCGGGAGUAACCUAGUGAUGUUAGUGUGCUCGGCCGCCACUAGGACCGGGACCGAUGACU [KL-SSTryp-B22 #DoubleAptamer],165
17,AGAACUGUCUUGGAUACCAGUGAUGUUGGUAUCUAUGUGUGAGUGCAAAGCGUCCCACAUUGCCCUUGGCAGCUAAGACUGUUCA [Omei KL Theo B Exc A v2],216
18,GGAUAGGAUAGAGGAUAUGGUUUAUGCAGGAAUAACUUAUCGUGUAAAUCCAUAGGGAGUGAUGUUCCAGAAGGCUGUCCUAUCG [MatMod 13 - Jieux - Exclusion - FMN B],250
19,UGACUGGAUGGAAGGAGCGCUAAACUCCUAGUGAUGUUAGGGAAACGAGACAAAGUCUCGAGGCAGGUAGGUCGCCAUCUAGUCU [FiskerMod 15 - Jieux - Same State - Arginine B],165
20,UGUCAUUGGUCGGCCGCCACUCCAUAAAGAGUGAUGUUCUAAAAGACGGAUCGAAAGAUCUGUCGGAGGACCGGGACCGAUGACU [FiskerMod 4 - Jieux - Same State - Tryptophan B],549
21,UGAUAGGACAGAAGGAGCGGAAGUGAUGUUUCCAAAAGGAAAGGUCGACAAAGUCGACCCUUCCAGGUAGGUCGCUGUCCUAUCU [ArgBX 8 #Palindromic #SwitchBubble #StaticStem],84.9
22,AAGUGUGUGGCGGCCGCCACUAGGAUCCAGUGAUGUUGGAGAUAUCUCGUAAGAGAUAUCCGCCAUAGGACCGGGCCAUAUAGAA [Same State - Tryptophan B (Freestyle 16)],161
